Measurements taken from patent US20130171217A1, “ENZYMATIC PERACID GENERATION FOR USE IN SKIN CARE PRODUCTS” (E I DU PONT DE NEMOURS AND COMPANY, priority 2010, published 2013).
Several values for one entry are separate records, joined by “and”; a condition that tells them apart may be missing. Equal values may be shown once.

Tests used:
[1] = One-step procedure on hair tresses, tress tensile strength; settings: for hair tensile strength: pH 6.6, 10 μg/mL enzyme
Text: COM-TEN® Tensile Tester 95-VD (Com-Ten Industries, Pinellas Park, Fla.), fitted with a 100 lb. (˜45.4 kg) load-cell was used for tensile tests. In order to reduce sample slippage, 5 mm wide strips of industrial grade VELCRO® (Velcro USA, Manchester, N.H.) were attached to the inside edges of the clamps. Before testing the CALIBRATION was set to “off”, FORCE UNITS were set to “grams” and the distance between the clamps was adjusted to 3 cm. The test sample was soaked in water for 30 seconds. Excess moisture was removed by gentle absorption on a paper towel, leaving enough moisture in hair for it to qualify as being at 100% humidity level. The glued edges of the test sample were clamped at both upper and lower clamps in such a way that the VELCRO® strips held the hair just below the glue. Tester speed was set to ˜2.5 inches by adjusting the speed control knob. With the Force meter in RUN mode, TARE was set to ZERO to set the starting PEAK FORCE to 0. To start the test the DIRECTION toggle switch was pressed to UP position. At the conclusion of the test, when the sample failed, the DIRECTION switch was moved to STOP and the peak force was recorded. The hair was cut off along the edge of the clamps at both lower and upper clamps. The clamps were opened and the stubs were removed, dried in air and weighed. The difference in original sample weight and combined weights of the stubs was the weight of the hair undergoing tensile elongation, and this quantity was used to calculate the tensile strength.
Tensile Strength (N/mg hair)=Peak force (Newtons)/(Initial sample weight−weight of stubs)
The hair tresses in these examples were cut from the stock medium brown hair swatches that were custom made by International Hair Importers (Glendale, N.Y.). Each hair tress was glued at one end, and cut at 5 mm width and 4 cm long (excluding the glued portion), with 100+/−20 mg net hair weight. For each test condition, triplicates of hair tresses were used. In the one-step procedure, each hair tress was placed in a clean plastic weighing tray (VWR, Cat. #12577-053), then 1 mL of the perhydrolase HC1121 solution in a buffer was applied to the hair tress, and was rubbed into the hair tress with an applicator. Then calculated amount of triacetin and 30% H2O2 were applied onto each hair tress and rubbed into the hair tress which gave 200 mM triacetin and 100 mM H2O2. The hair tress sat in this reaction mixture for 30 min, before being washed thoroughly with tap water followed by paper towel dry. This completed a 30 min treatment cycle. The treatment cycle was repeated 16 times. Hair tress became lighter-colored and weakened during the treatment. After final rinse and air-drying, tensile strength tests as described in Example 25 were conducted on each hair tress to quantify hair weakening. In addition, L*, a*, b* color measurements were taken for each hair sample to quantify hair color loss, and L*, a*, b* color measurements were also taken for untreated hair as a reference for ΔE color difference calculations. ΔE was calculated in the standard way as ΔE=((L*−L*ref)^2+(a*−a*ref)^2+(b*−b*ref)^2)^0.5. […] At pH 6, when 30 μg/mL HC1121 was used which gave 0.3 μg/mg hair E/H ratio, the tensile strength of treated hair tress reduced to 1.9 N/mg hair, approaching 1.5 N/mg hair, the benchmark strength of hair treated with NAIR® cream for 5 min. At pH 7, when 30 μg/mL HC1121 was used, the tensile strength of treated hair tress was 0.3 N/mg hair, much less than the 1.5 N/mg hair benchmark. Therefore, proper concentration of enzyme at proper pH could weaken hair effectively. The measured hair color loss for treated hair tresses correlated well with the weakening of hair: the greater hair weakening, the greater hair color loss. […]

[2] = Two-step treatment of hair tresses, color loss ΔE; settings: 2500 μg/mL (E/H 10), 20 min/cycle, 1 cycle
[3] = 10 μg/mL HC1121, pH 6.6, 50 mM phosphate, 200 mM TA/100 mM H2O2, 24 hr/cycle, 8 cycles
[4] = 10 μg/mL HC1121, pH 6.6, 50 mM phosphate, 200 mM TA/200 mM H2O2, 24 hr/cycle, 8 cycles
[5] = 10 μg/mL HC1121, pH 6.6, 50 mM phosphate, 200 mM TA/300 mM H2O2, 24 hr/cycle, 8 cycles
[6] = 10 μg/mL HC1121, pH 6.6, 50 mM phosphate, 200 mM TA/500 mM H2O2, 24 hr/cycle, 8 cycles
[7] = 10 μg/mL HC1121, pH 6.6, 50 mM phosphate, 500 mM TA/500 mM H2O2, 24 hr/cycle, 8 cycles
[8] = one-step, 30 μg/mL enzyme, pH 6, 30 min × 16, listed as HC1121
[9] = one-step, 30 μg/mL enzyme, pH 7, 30 min × 16, listed as HC1121
[10] = one-step, pH 6.6, 50 mM buffer, 30 min/cycle X 16 cycles, SLES wash each cycle
[11] = one-step, pH 6.6, 50 mM buffer, 24 hr/cycle X 7 cycles, SLES wash each cycle
[12] = one-step, pH 6.6, 100 mM buffer, 30 min/cycle X 16 cycles, SLES wash each cycle

B1: C277S-HC263: C277S variant of Thermotoga maritima perhydrolase fused via a flexible linker to hair-binding domain HC263 (protein)
chain: MAFFDLPLEELKKYRPERYEEKDFDEFWEETLAESEKFPLDPVFERMESHLKTVEAYDVTFSGYRGQRIKGWLLVPKLEEEKLPCVVQYIGYNGGRGFPHDWLFWPSMGYICFVMDTRGQGSGWLKGDTPDYPEGPVDPQYPGFMTRGILDPRTYYYRRVFTDAVRAVEAAASFPQVDQERIVIAGGSQGGGIALAVSALSKKAKALLCDVPFLCHFRRAVQLVDTHPYAEITNFLKTHRDKEEIVFRTLSYFDGVNFAARAKIPALFSVGLMDNISPPSTVFAAYNYYAGPKEIRIYPYNNHEGGGSFQAVEQVKFLKKLFEKGGPGSGGAGSPGSAGGPGSPSAQSQLPDKHSGLHERAPQRYGPEPEPEPEPIPEPPKEAPVVIEKPKPKPKPKPKPPAHDHKNQKETHQRHAAGSGGGGSPHHHHHH
**Q.** Which “Strength N/mg Hair, average” value [1, 3] does the source give for B1 here?
**A.** 1.19 N/mg Hair

**Q.** What about the “Strength N/mg Hair, replicate1” value [1, 3] of the same molecule?
**A.** 1.08 N/mg Hair

**Q.** What about the “Strength N/mg Hair, replicate2” value [1, 3] of the same molecule?
**A.** 1.40 N/mg Hair

**Q.** What about the “Strength N/mg Hair, replicate3” value [1, 3] of the same molecule?
**A.** 1.09 N/mg Hair

**Q.** And the “Strength N/mg Hair, average” value [1, 4]?
**A.** 0.86 N/mg Hair

**Q.** And the “Strength N/mg Hair, replicate3” value [1, 4]?
**A.** 0.99 N/mg Hair

**Q.** What about the “Strength N/mg Hair, average” value [1, 5] of the same molecule?
**A.** 0.55 N/mg Hair

**Q.** And the “Strength N/mg Hair, replicate1” value [1, 5]?
**A.** 0.58 N/mg Hair

**Q.** What about the “Strength N/mg Hair, replicate2” value [1, 5] of the same molecule?
**A.** 0.50 N/mg Hair

**Q.** What about the “Strength N/mg Hair, replicate3” value [1, 5] of the same molecule?
**A.** 0.57 N/mg Hair

**Q.** What about the “Strength N/mg Hair, average” value [1, 6] of the same molecule?
**A.** 0.45 N/mg Hair

**Q.** What about the “Strength N/mg Hair, replicate1” value [1, 6] of the same molecule?
**A.** 0.39 N/mg Hair

**Q.** And the “Strength N/mg Hair, replicate2” value [1, 6]?
**A.** 0.38 N/mg Hair

**Q.** What about the “Strength N/mg Hair, replicate3” value [1, 6] of the same molecule?
**A.** 0.58 N/mg Hair

**Q.** And the “Strength N/mg Hair, average” value [1, 7]?
**A.** 0.53 N/mg Hair

**Q.** And the “Strength N/mg Hair, replicate1” value [1, 7]?
**A.** 0.53 N/mg Hair

**Q.** What about the “Strength N/mg Hair, replicate3” value [1, 7] of the same molecule?
**A.** 0.49 N/mg Hair

**Q.** What about the “Strength, replicates 1-3” value ([1]; one-step, 5 μg/mL enzyme, pH 6, 200 mM triacetin, 100 mM H2O2, 30 min × 16, listed as HC1121) of the same molecule?
**A.** 2.89 N/mg Hair and 3.16 N/mg Hair and 3.03 N/mg Hair

**Q.** And the “Strength, average” value ([1]; one-step, 5 μg/mL enzyme, pH 6, 30 min × 16)?
**A.** 3.03 N/mg Hair

**Q.** What about the “Strength, average” value ([1]; one-step, 15 μg/mL enzyme, pH 6, 30 min × 16) of the same molecule?
**A.** 2.95 N/mg Hair

**Q.** What about the “Strength, replicates 1-3” value ([1]; one-step, 15 μg/mL enzyme, pH 6, 30 min × 16, listed as HC1121) of the same molecule?
**A.** 3.58 N/mg Hair and 2.54 N/mg Hair and 2.72 N/mg Hair

**Q.** And the “Strength, average” value [1, 8]?
**A.** 1.9 N/mg Hair and 1.86 N/mg Hair

**Q.** And the “Strength, replicates 1-3” value [1, 8]?
**A.** 1.77 N/mg Hair and 1.86 N/mg Hair and 1.95 N/mg Hair

**Q.** What about the “Strength, average” value [1, 9] of the same molecule?
**A.** 0.3 N/mg Hair and 0.32 N/mg Hair

**Q.** What about the “Strength, replicates 1-3” value [1, 9] of the same molecule?
**A.** 0.31 N/mg Hair and 0.33 N/mg Hair (2×)

**Q.** What about the hair tensile strength ([1]; one-step, 200 mM triacetin, 100 mM H2O2, 8 cycles of 24 hr) of the same molecule?
**A.** 1.2 N/mg hair

**Q.** And the hair tensile strength ([1]; one-step, H2O2 over 300 mM, 8 cycles of 24 hr)?
**A.** about 0.5 N/mg hair

**Q.** And the “Strength N/mg Hair, average” value [1, 10]?
**A.** 0.65 N/mg Hair

**Q.** What about the “Strength N/mg Hair, replicate1” value [1, 10] of the same molecule?
**A.** 0.59 N/mg Hair

**Q.** And the “Strength N/mg Hair, replicate2” value [1, 10]?
**A.** 0.50 N/mg Hair

**Q.** And the “Strength N/mg Hair, replicate3” value [1, 10]?
**A.** 0.85 N/mg Hair

**Q.** What about the “Strength N/mg Hair, average” value [1, 11] of the same molecule?
**A.** 0.82 N/mg Hair

**Q.** What about the “Strength N/mg Hair, replicate1” value [1, 11] of the same molecule?
**A.** 0.86 N/mg Hair

**Q.** What about the “Strength N/mg Hair, replicate2” value [1, 11] of the same molecule?
**A.** 0.94 N/mg Hair

**Q.** And the “Strength N/mg Hair, replicate3” value [1, 11]?
**A.** 0.66 N/mg Hair

**Q.** And the “Strength N/mg Hair, average” value [1, 12]?
**A.** 0.30 N/mg Hair

**Q.** And the “Strength N/mg Hair, replicate1” value [1, 12]?
**A.** 0.22 N/mg Hair

**Q.** And the “Strength N/mg Hair, replicate2” value [1, 12]?
**A.** 0.34 N/mg Hair

**Q.** And the “Strength N/mg Hair, replicate3” value [1, 12]?
**A.** 0.35 N/mg Hair

**Q.** And the “ΔE of color loss” value [2]?
**A.** 2
